Measured values reported in the supplement of paper PMC10567573.

B1: KLHL14 (parent)
chain: YVIGGRNETGYLSSVECYNLETNE

Variants of: B1
Assay: protein stability index of a GFP-peptide fusion (GPS, HEK-293T) (PSI 1-6); higher = more stable
Conditions: c terminus: a fixed tail appended
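Further: lentivirally expressed fusions sorted by FACS into six bins by GFP to DsRed ratio, PSI derived from sequencing read proportions per bin multiplied by bin number.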

Variant	protein stability index
YVIGGRNETGYLSTVECYNLETNE [S14T]	1.99
YVIGGRNETGYLSCVECYNLETNE [S14C]	2.4
YGIGGRNETGYLSSVECYNLETNE [V2G]	4
YHIGGRNETGYLSSVECYNLETNE [V2H]	2.15
YIIGGRNETGYLSSVECYNLETNE [V2I]	2.14
YYIGGRNETGYLSSVECYNLETNE [V2Y]	3.4
YSIGGRNETGYLSSVECYNLETNE [V2S]	3.89
YRIGGRNETGYLSSVECYNLETNE [V2R]	3.4
YDIGGRNETGYLSSVECYNLETNE [V2D]	4.57
YVIGGGNETGYLSSVECYNLETNE [R6G]	1.92
YVIGGTNETGYLSSVECYNLETNE [R6T]	2.52
YVIGGRNESGYLSSVECYNLETNE [T9S]	1.93
YVIGGRNEIGYLSSVECYNLETNE [T9I]	1.49
YVIGGRNEVGYLSSVECYNLETNE [T9V]	2.07
YVIGGRNEAGYLSSVECYNLETNE [T9A]	1.9
YVIGGRNELGYLSSVECYNLETNE [T9L]	1.69
YVIGGRNETGYLSSVECYNSETNE [L20S]	2.18
YVIGGRNETGYLSSVECYNQETNE [L20Q]	2.48
YVIGGRNETGYLSSVECYNTETNE [L20T]	2.36
YVIGGRNETGYLSSVECYNRETNE [L20R]	2.39
YVIGCRNETGYLSSVECYNLETNE [G5C]	1.93
YVIGMRNETGYLSSVECYNLETNE [G5M]	1.69
YVIGPRNETGYLSSVECYNLETNE [G5P]	1.89
YVIGRRNETGYLSSVECYNLETNE [G5R]	1.71

Variant	protein stability index
YVIGYRNETGYLSSVECYNLETNE [G5Y]	1.72
YVIGHRNETGYLSSVECYNLETNE [G5H]	1.74
YVIGGRNETGYLISVECYNLETNE [S13I]	1.84
YVIGGRNETGYLKSVECYNLETNE [S13K]	1.68
YVIGGRNETGYLTSVECYNLETNE [S13T]	1.79
YVIGGRNETGYLLSVECYNLETNE [S13L]	2.25
YVIGGRNETGYLHSVECYNLETNE [S13H]	1.58
YVIGGRNETGYLRSVECYNLETNE [S13R]	2.23
YVIGGRNETGYLFSVECYNLETNE [S13F]	2.13
YVIGGRNETGYLCSVECYNLETNE [S13C]	2.24
YVIGGRNETGYLSSVECYNLEFNE [T22F]	1.54
YVIGGRNETGYLSSVECYNLEKNE [T22K]	2.2
YVIGGRNETGYLSSVECYNLEENE [T22E]	2.84
YVIGGRNETGYLSSVECYNLEWNE [T22W]	1.53
YVIGGRNETGYLSSIECYNLETNE [V15I]	1.83
YVIGGRNETGYLSSTECYNLETNE [V15T]	1.74
YVIGGRNETGYLSSRECYNLETNE [V15R]	2.01
YVIGGRNETGYLSSVEQYNLETNE [C17Q]	2.43
YVIGGRNETGYLSSVEYYNLETNE [C17Y]	1.78
YVIGGRNETGYLSSVEHYNLETNE [C17H]	2.08
YVIGGRNETGYLSSVERYNLETNE [C17R]	2.39
YVIGGRNETGYLSSVEWYNLETNE [C17W]	2.17
YVIGGRNETGYLSSVECYGLETNE [N19G]	1.7
YVIGGRNETGYLSSVECYILETNE [N19I]	2.07

Variant	protein stability index
SVIGGRNETGYLSSVECYNLETNE [Y1S]	4.63
FVIGGRNETGYLSSVECYNLETNE [Y1F]	2.19
WVIGGRNETGYLSSVECYNLETNE [Y1W]	2.87
VVIGGRNETGYLSSVECYNLETNE [Y1V]	3.2
IVIGGRNETGYLSSVECYNLETNE [Y1I]	2.06
YVIGGRNETGFLSSVECYNLETNE [Y11F]	1.83
YVIGGRNETGTLSSVECYNLETNE [Y11T]	2.75
YVIGGRNETGELSSVECYNLETNE [Y11E]	3.9
YVIGGRNETGVLSSVECYNLETNE [Y11V]	2.52
YVIGGRNETGILSSVECYNLETNE [Y11I]	2.1
YVIGGRNETGALSSVECYNLETNE [Y11A]	2.71
YVIGGRNETGDLSSVECYNLETNE [Y11D]	3.65
YVIGGRNETGYLSSVSCYNLETNE [E16S]	2.18
YVIGGRNETGYLSSVRCYNLETNE [E16R]	2.16
YVIGGRWETGYLSSVECYNLETNE [N7W]	1.63
YVIGGRNITGYLSSVECYNLETNE [E8I]	1.81
YVIGGRNRTGYLSSVECYNLETNE [E8R]	1.95
YVIGGRNSTGYLSSVECYNLETNE [E8S]	2.09
YVIGGRNETGYLSSVECYNLETNL [E24L]	2.27
YVIGGRNETGYLSSVECYNLETNY [E24Y]	2.08
YVIGGRNETWYLSSVECYNLETNE [G10W]	2.21
YVIGGRNETFYLSSVECYNLETNE [G10F]	2.81
YVIGGRNETSYLSSVECYNLETNE [G10S]	1.93
YVIGGRNETRYLSSVECYNLETNE [G10R]	2.55

Variant	protein stability index
YVIGGRNETGYLSSVECYNLETEE [N23E]	2.67
YVIGGRNETGYLSSVECYNLFTNE [E21F]	2.62
YVIGGRNETGYLSSVECYNLDTNE [E21D]	1.8
YVIGGRNETGYLSSVECYNLSTNE [E21S]	2.29
YVIGGRNETGYLSSVECYNLITNE [E21I]	2.05
YVIGGRNETGYLSSVECYNLGTNE [E21G]	2.19
YVIGGRNETGYLSSVECYNLHTNE [E21H]	1.63
YVKGGRNETGYLSSVECYNLETNE [I3K]	1.58
YVWGGRNETGYLSSVECYNLETNE [I3W]	1.02
YVEGGRNETGYLSSVECYNLETNE [I3E]	2.64
YVIGGRNETGYLSSVECANLETNE [Y18A]	2.76
YVIGGRNETGYLSSVECWNLETNE [Y18W]	2.21
YVIGGRNETGYLSSVECCNLETNE [Y18C]	1.71
YVIGGRNETGYLSSVECSNLETNE [Y18S]	2.14
YVIGGRNETGYLSSVECNNLETNE [Y18N]	2.61
YVIGGRNETGYLSSVECPNLETNE [Y18P]	2.45
YVIGGRNETGYLSSVECLNLETNE [Y18L]	2.11
YVIGGRNETGYLSSVECKNLETNE [Y18K]	1.96
YVIGGRNETGYWSSVECYNLETNE [L12W]	2.47
YVIGGRNETGYKSSVECYNLETNE [L12K]	2.16
YVIGGRNETGYASSVECYNLETNE [L12A]	2.62
YVITGRNETGYLSSVECYNLETNE [G4T]	1.5
